Data set [1] concerns NAD generated after 1 hour at 37 deg. The data set can be described thus: relative NMNAT enzymatic activity of affinity purified 6xHis-tagged proteins from HEK293T cells. The data set is classed as biochemical. As to conditions: affinity purified protein, normalized to protein concentration. The protocol:
NMNAT protein overexpression, affinity purification and enzymatic assay. HEK293T cells were transfected with an expression plasmid for each enzyme by using calcium phosphate precipitation. Three days later, cells were washed with PBS twice and then suspended in the buffer containing 50 mM Sodium Phosphate (pH8.0), and 300 mM NaCl (buffer A). Cells were then homogenized by SONIFIRE 450 (BRANSON) and supernatant was collected by centrifugation at 10,000 g for 10 min. […] Relative NMNAT enzymatic activity was measured by using affinity purified proteins as described before and subtracted the value obtained from mock transfected cells and normalized by the amount of recombinant protein determined by densitometry.
Next we confirmed enzymatic activity of cytNMNAT1, NMNAT1 and its mutant cytNMNAT1 were purified from the cell lysate expressing either of proteins by using affinity gel. […] We expressed hexa-histidine tagged NMNAT3 or nucNMNAT3 in HEK293T cells and analyzed subcellular localization and its enzymatic activity. […] In these investigations, the amount of NAD generated after 1 hour at 37 deg was converted NADH, quantified and normalized to protein concentration. […] FIG. 7E presents a quantitative analysis of remaining neurite numbers at 12, 24, 48, and 72 hours after axotomy. […]

In another data set the test system is DRG explant neurons. Kind of data set: in vitro Wallerian degeneration assay: DRG explant cultures, axonal transection by removal of neuronal cell bodies. Format: cell-based, mouse. As to conditions: lentivirus-infected DRG neurons. The protocol: To identify the mechanism of delayed axonal degeneration mediated by the Wld^s protein, we employed an in-vitro Wallerian degeneration model. Primary DRG explant neurons were infected with lentivirus expressing the appropriate proteins, and axons were injured by either removal of the neuronal cell body (transection) or growth in vincristine (toxic).
Mouse DRG explants from E12.5 embryos were cultured in the presence of 1 nM nerve growth factor. Non-neuronal cells were removed from the cultures by adding 5-fluorouracil to the culture medium. Transection of neurites was performed at 10-20 DIV using an 18-gauge needle to remove the neuronal cell bodies. Incubation with β-nicotinamide adenine dinucleotide (Sigma) or Sirtinol (Calbiochem) was performed using conditions indicated in the text or figures.
Lentiviral expression vectors were generated using HEK293T cells as described above. For confirmation of lentivirus-derived protein expression, HEK293T cells were infected with lentivirus and cells were lysed 3 days after infection. These lysates were analyzed by immunoblot to using anti-His tag monoclonal antibody (Qiagen) to detect expression of the respective hexahistidine-tagged proteins. Lentiviral infection of DRG neurons was performed by incubating ˜10^6-10^7 pfu/ml virus with the DRG explant for 24 h beginning 3-7 days prior to axonal transection. The infected neurons were examined under an inverted fluorescent microscope to insure detectable lentivirus-mediated transgene expression in >95% of neurons.
Quantitative analysis of axonal degeneration was performed as previously described (Zhai, et al., Neuron 39:217-25, 2003). Briefly, the cultures were examined using phase contrast microscopy at the indicated times. Axons with a fragmented, non-refractile appearance were designated as “degenerated.” At each time point, at least 200 singly distinguishable axons were blindly scored from several randomly taken images of each culture. Each condition was tested in triplicate explants in each experiment. Results were obtained from 2-4 independent experiments for each condition. Statistical analysis was performed by Student's T test. For calculations of neurite-covered area, digitally captured images from quadruplicate samples of two independent experiments were analyzed using analysis 3.1 software (Soft Imaging System, Lakewood, Colo.).
Cell culture, in vitro axotomy, and quantification of axonal degeneration. Mouse DRG explants from E12.5 embryos were cultured in the DMEM containing 10% FCS and 1 nM nerve growth factor. Non-neuronal cells were removed from the cultures by adding 5-fluorouracil to the culture media. Transection of neurites was performed at 14-21 DIV using an 18-gauge needle to remove the neuronal cell bodies. Lentiviral expression vectors were generated. Lentiviral infection was performed 3-7 days prior to axonal transection for 24 hr. Quantitative analysis of neurite degeneration was performed.

Turning to “NMNAT3: murine nicotinamide mononucleotide adenylyltransferase3”, the “enzymatic activity (relative NMNAT activity)” value in data set [1] is given as “comparable enzymatic activity compared with NMNAT1”. In the data set on DRG explant neurons, the “axonal degeneration after transection in neurons expressing the construct” value is listed as “same extent of delay in neurite degeneration as well as NMNAT1”.

Source of the values: US8889126B2, “Methods and compositions for treating neuropathies” (Washington University, priority 2004, dated 2014).
